Source: patent US20200002414A1 (published 2020)
Residue numbers refer to the chain shown, from its start. Numbers in names are those of the source.

B1: LC-V029E (antibody, V domains shown)
VH: EVQLQQSGPELVKPGASVKISCKTSGYTFTEYTMHWMKQSHRKSLEWIGGINTNNGGTGYNQKFKGKATLTVDKSSSTAYMELRSLTSEDSAVYFCARGSLYSYGNSYFDYWGQGTLVTVSS
VL: QIVLTQSPAIMSASPGEKVTITCSATSSESYMHWFQQKPGTSPKLWIYGTSNLASGVPARFSGSGSGTSYSLTISRMEAEDAATYYCQQRSSYPFTFGQGTKVEIK
B2: LC-H033G (antibody, V domains shown)
VH: B1 VH
VL: B1 VL with E29V, H33G
B3: LC-H033L (antibody, V domains shown)
VH: B1 VH
VL: B1 VL with E29V, H33L
B4: LC-G049H (antibody, V domains shown)
VH: B1 VH
VL: B1 VL with E29V, G49H
B5: LC-Y031D (antibody, V domains shown)
VH: B1 VH
VL: B1 VL with E29V, Y31D
B6: LC-G049C (antibody, V domains shown)
VH: B1 VH
VL: B1 VL with E29V, G49C
B7: HC-G050S (antibody, V domains shown)
VH: B1 VH with G50S
VL: B1 VL with E29V
B8: HC-G105D (antibody, V domains shown)
VH: B1 VH with G105D
VL: B1 VL with E29V
B9: HC-T053E (antibody, V domains shown)
VH: B1 VH with T53E
VL: B1 VL with E29V
B10: HC-M034D (antibody, V domains shown)
VH: B1 VH with M34D
VL: B1 VL with E29V
B11: HC-A097S (antibody, V domains shown)
VH: B1 VH with A97S
VL: B1 VL with E29V
B12: HC-A097T (antibody, V domains shown)
VH: B1 VH with A97T
VL: B1 VL with E29V
B13: HC-R098Q (antibody, V domains shown)
VH: B1 VH with R98Q
VL: B1 VL with E29V
B14: HC-N106E (antibody, V domains shown)
VH: B1 VH with N106E
VL: B1 VL with E29V
B15: HC-M034Y (antibody, V domains shown)
VH: B1 VH with M34Y
VL: B1 VL with E29V
B16: HC-Y111C (antibody, V domains shown)
VH: B1 VH with Y111C
VL: B1 VL with E29V
B17: HC-M034E (antibody, V domains shown)
VH: B1 VH with M34E
VL: B1 VL with E29V
B18: HC-A097I (antibody, V domains shown)
VH: B1 VH with A97I
VL: B1 VL with E29V
B19: HC-G099E (antibody, V domains shown)
VH: B1 VH with G99E
VL: B1 VL with E29V
B20: HC-L101F (antibody, V domains shown)
VH: B1 VH with L101F
VL: B1 VL with E29V
B21: HC-T033C (antibody, V domains shown)
VH: B1 VH with T33C
VL: B1 VL with E29V
B22: HC-A097M (antibody, V domains shown)
VH: B1 VH with A97M
VL: B1 VL with E29V
B23: HC-W112L (antibody, V domains shown)
VH: B1 VH with W112L
VL: B1 VL with E29V
B24: HC-S103G (antibody, V domains shown)
VH: B1 VH with S103G
VL: B1 VL with E29V
B25: HC-N052C (antibody, V domains shown)
VH: B1 VH with N52C
VL: B1 VL with E29V
B26: HC-T053D (antibody, V domains shown)
VH: B1 VH with T53D
VL: B1 VL with E29V
B27: HC-N052V (antibody, V domains shown)
VH: B1 VH with N52V
VL: B1 VL with E29V
B28: HC-R098H (antibody, V domains shown)
VH: B1 VH with R98H
VL: B1 VL with E29V
B29: HC-N052L (antibody, V domains shown)
VH: B1 VH with N52L
VL: B1 VL with E29V
B30: HC-Y032D (antibody, V domains shown)
VH: B1 VH with Y32D
VL: B1 VL with E29V
B31: HC-F029E (antibody, V domains shown)
VH: B1 VH with F29E
VL: B1 VL with E29V
B32: HC-D110L (antibody, V domains shown)
VH: B1 VH with D110L
VL: B1 VL with E29V
B33: HC-Y111T (antibody, V domains shown)
VH: B1 VH with Y111T
VL: B1 VL with E29V
B34: HC-I051E (antibody, V domains shown)
VH: B1 VH with I51E
VL: B1 VL with E29V

Target: T1, human Ror2 (human, UniProt Q01974 34-403, limits assumed)
T1 construct: also called hROR2; receptor tyrosine kinase-like orphan receptor 2
Assay: ELISA, human Ror2, pH 6.0

T1 sequence (Q01974 34-403 limits assumed): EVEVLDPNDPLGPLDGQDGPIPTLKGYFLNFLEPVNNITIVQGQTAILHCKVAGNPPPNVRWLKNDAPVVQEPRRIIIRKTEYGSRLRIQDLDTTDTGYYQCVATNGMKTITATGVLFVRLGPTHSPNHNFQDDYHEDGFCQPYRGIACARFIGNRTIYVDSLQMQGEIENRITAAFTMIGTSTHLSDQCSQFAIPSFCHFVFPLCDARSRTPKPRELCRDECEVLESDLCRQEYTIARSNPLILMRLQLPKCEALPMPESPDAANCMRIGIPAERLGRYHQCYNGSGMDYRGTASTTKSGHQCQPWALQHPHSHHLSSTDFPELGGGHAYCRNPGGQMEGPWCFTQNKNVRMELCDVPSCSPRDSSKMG

Binder	Affinity ELISA pH 6.0
B1	0.406
B2	1.1
B3	0.69
B4	1.87
B5	0.911
B6	0.468

Target: T1, human Ror2
Assay: ELISA, human Ror2, pH 7.4

Binder	Affinity ELISA pH 7.4
B1	0.129
B2	0.536
B3	0.332
B4	0.118
B5	0.405
B6	0.133

Target: T1, human Ror2
Assay: ELISA, human Ror2, pH 6.0
Remark: another data set of the same source

Binder	Affinity ELISA pH 6.0
B7	0.823
B8	0.509
B9	0.54
B10	1.24
B11	1.67
B12	1.83
B13	0.799
B14	0.224
B15	0.903
B16	1.08
B17	1.17
B18	1.89
B19	0.616
B20	1.46
B21	0.626
B22	1.98
B23	1.75
B24	0.794
B25	0.995
B26	1.11
B27	0.87
B28	0.928
B29	0.911
B30	1.47
B31	1.34
B32	1.68
B33	1.86
B34	1.04

Target: T1, human Ror2
Assay: ELISA, human Ror2, pH 7.4
Remark: another data set of the same source

Binder	Affinity ELISA pH 7.4
B7	0.318
B8	0.379
B9	0.157
B10	0.211
B11	1.69
B12	1.69
B13	0.276
B14	0.115
B15	0.391
B16	0.793
B17	0.185
B18	1.73
B19	0.421
B20	1.41
B21	0.232
B22	1.7
B23	1.7
B24	0.655
B25	0.431
B26	0.222
B27	0.34
B28	0.353
B29	0.433
B30	0.51
B31	0.742
B32	1.4
B33	1.4
B34	0.1

Target: T1, human Ror2
Assay: ELISA, human Ror2; ratio of signal at pH 6.0 to pH 7.4

Binder	ratio, pH 6.0/7.4
B1	3.15
B2	2.06
B3	2.08
B4	15.9
B5	2.25
B6	3.52

Target: T1, human Ror2
Assay: as above
Remark: another data set of the same source

Binder	ratio, pH 6.0/7.4
B7	2.6
B8	1.34
B9	3.44
B10	5.9
B11	1.67
B12	1.67
B13	2.89
B14	1.95
B15	2.31
B16	1.36
B17	6.3
B18	1.89
B19	1.46
B20	1.46
B21	2.7
B22	1.98
B23	1.75
B24	1.21
B25	2.31
B26	4.99
B27	2.56
B28	2.63
B29	2.1
B30	2.88
B31	1.81
B32	1.68
B33	1.68
B34	10.4
